The text below walks through data of PMC10186271, “The ABA-induced NAC transcription factor MdNAC1 interacts with a bZIP-type transcription factor to promote anthocyanin synthesis in red-fleshed apples”.

Data set [1] addresses T1, MdNAC1 (Malus domestica, UniProt D9ZJ87 1-280).
T1 sequence: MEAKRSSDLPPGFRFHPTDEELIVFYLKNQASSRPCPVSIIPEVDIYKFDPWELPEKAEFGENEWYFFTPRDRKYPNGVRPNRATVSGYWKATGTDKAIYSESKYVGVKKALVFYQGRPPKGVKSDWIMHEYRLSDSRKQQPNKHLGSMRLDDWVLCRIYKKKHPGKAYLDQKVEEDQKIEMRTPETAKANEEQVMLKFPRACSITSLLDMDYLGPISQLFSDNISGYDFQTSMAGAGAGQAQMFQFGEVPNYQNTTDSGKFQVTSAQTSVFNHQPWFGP
Put plainly: EMSA; unlabeled competitor decreased binding; Thermo Scientific Pierce EMSA kit protocol; buffer, salt, pH and temperature not stated; cold probe 100x. To be noted: protein: recombinant; tags: His (pET32a); chain copies: 2; label: 3' biotin; blunt.

Data set [2] concerns the target T1, MdNAC1. Put plainly: EMSA; Thermo Scientific Pierce EMSA kit protocol; buffer, salt, pH and temperature not stated; cold probe 100x. Particulars: protein: recombinant; tags: His (pET32a); chain copies: 2; label: 3' biotin; blunt.

B1: MYB10 hot probe (dsDNA)
DNA 1: TTTAATAAAAAGGACCCTGAACACGTGGGAACCGGCCCGTTTGTAA
DNA 2: TTACAAACGGGCCGGTTCCCACGTGTTCAGGGTCCTTTTTATTAAA
Take B1: the binding result with MdNAC1 [1] was “binds”.

B2: MYB10 mutant probe (dsDNA)
DNA 1: TTTAATAAAAAGGACCCTGAATTAATGGGAACCGGCCCGTTTGTAA
DNA 2: TTACAAACGGGCCGGTTCCCATTAATTCAGGGTCCTTTTTATTAAA
In the case of B2, the binding result with MdNAC1 [2] is “no binding”.

B3: UFGT hot probe (box 1) (dsDNA)
DNA 1: GTGATTGGCTTCTGATGTTGACACGTGTCGCGCTGTGGTTGGCTTC
DNA 2: GAAGCCAACCACAGCGCGACACGTGTCAACATCAGAAGCCAATCAC
Consider B3, for which the binding result in the data set with MdNAC1 [1] is “binds”.

B4: UFGT mutant probe (box 1) (dsDNA)
DNA 1: GTGATTGGCTTCTGATGTTGACCTCTGTCGCGCTGTGGTTGGCTTC
DNA 2: GAAGCCAACCACAGCGCGACAGAGGTCAACATCAGAAGCCAATCAC
Regarding B4, the binding result with MdNAC1 [2] is on record as “no binding”.
